The target of this experiment is T1, soluble CD4 (human, UniProt P01730 26-396, limits assumed).
T1 construct: The assay paragraph says only 'soluble CD4'
Briefly: competitive ELISA, inhibition of biotinylated mB-F5 binding to coated soluble CD4, 37 °C 2 hours. As for the experimental part: Culture supernatants of transfectomas producing the four versions of hB-F5 were collected, and concentrated. The different antibodies were purified from culture supernatants by affinity chromatography using protein A Sepharose and assessed for their CD4 binding activity by measuring, by means of competitive ELISA, their inhibitory activities against the binding of biotinylated mB-F5 to soluble CD4 coated on microtiter plates. Incubation, time is 2 hours for 37° C. and overnight for 4° C.
Background: An ELISA detects its analyte on a solid surface through an enzyme-linked reagent.

The record followed here is US20110059082A1 (BIOTEST, published 2011).

Numbering of substitutions follows the chain as printed. Numbers in names are those of the source.

B1: humanized B-F5 H37L/L4L (antibody, V domains shown)
VH: EEQLVESGGGLVKPGGSLRLSCAASGFSFSDCRMYWLRQAPGKGLEWIGVISVKSENYGANYAESVRGRFTISRDDSKNTVYLQMNSLKTEDTAVYYCSASYYRYDVGAWFAYWGQGTLVTVSS
VL: DIVLTQSPDSLAVSLGERATINCRASKSVSTSGYSYIYWYQQKPGQPPKLLIYLASILESGVPDRFSGSGSGTDFTLTISSLQAEDVAVYYCQHSRELPWTFGQGTKVEIK
notes: expressed in Sp2/0, purified on protein A; also called H37L/L4L IgG1; hB-F5
Consider B1, for which the “Relative binding activity (% of mB-F5)” value was 30 % of mB-F5.

B2: humanized B-F5 H37L/L4M IgG1 (BT061) (antibody, V domains shown)
VH: B1 VH
VL: B1 VL with L4M
notes: also called hB-F5; humanised B-F5
With B2, the “Relative binding activity (% of mB-F5)” value is 30 % of mB-F5.

B3: humanized B-F5 H37V/L4M (antibody, V domains shown)
VH: B1 VH with L37V
VL: B1 VL with L4M
notes: also called hB-F5
As for B3, the “Relative binding activity (% of mB-F5)” value was 10 % of mB-F5.

B4: humanized B-F5 H37V/L4L (antibody, V domains shown)
VH: B1 VH with L37V
VL: B1 VL
notes: also called hB-F5
In the case of B4, the “Relative binding activity (% of mB-F5)” value was 10 % of mB-F5.
